Reference: patent publication US20100056439A1 (DOMANTIS, published 2010)
Residue numbers refer to the chain shown, from its start.

B1: DOM16-39 (other)
VL: DIQMTQSPSSLSASVGDRVTITCRASQWIGILLDWYQQKPGEAPKLLIYYASFLQSGVPSRFSGSGSGTDFTLTISSLQPEDFATYYCQQANPAPLTFGQGTKVEIKR
B2: IgG-like format No. 28 (heavy chain V region DOM15-26-501 VH; light chain V region DOM16-39-500 VK) (bispecific antibody, V domains shown)
VH: EVQLLESGGGLVQPGGSLRLSCAASGFTFKAYPIMWVRQAPGKGLEWVSEISPSGSYTYYADSVKGRFTISRDNSKNTLYLQMNSLRAEDTAVYYCAKDPRKFDYWGQGTLVTVSS
VL: B1 VL with L33V, E42K, S67F, Q79H
notes: IgG-like format; also called IgG 28; not shown: human IgG1 heavy chain constant region; human kappa light chain constant region (CK)
B3: DOM16-39-115 (other)
VL: B1 VL with S67Y
B4: DOM16-39-107 (other)
VL: B1 VL with L33V
B5: DOM16-39-87 (other)
VL: B1 VL with L33V, T97R
B6: IgG-like format No. 30 (heavy chain V region DOM15-26-501 VH; light chain V region DOM16-39-502 VK) (bispecific antibody, V domains shown)
VH: B2 VH
VL: B1 VL with S9T, I31N, E42K, S65G, S67F
notes: IgG-like format; also called IgG 30; not shown: human IgG1 heavy chain constant region; human kappa light chain constant region (CK)
B7: DOM16-39-109 (other)
VL: B1 VL with S9T, I31N, S65G, S67F
B8: DOM16-39-100 (other)
VL: B1 VL with L33V, S67F, Q79H

Columns and labels:
[1] = molecular target: T1, EGFR expressed on A431 cells (human, UniProt P00533 25-1210); assay: cell-based or functional assay
[2] = molecular target: T1, EGFR expressed on A431 cells; assay: EGFR cell receptor binding assay: inhibition of biotinylated EGF binding to A431 cells; IgG-like format
VEGF-165 = molecular target: T2, VEGF-165 (human, UniProt P15692-4 27-191); assay: VEGF receptor binding assay (RBA), IgG-like format; receptor (VEGFR1 or VEGFR2) not given
T2 construct: The assay text gives no species; also called vascular endothelial growth factor
T2 sequence (P15692 other isoform, or with tags, fused parts or gaps limits assumed): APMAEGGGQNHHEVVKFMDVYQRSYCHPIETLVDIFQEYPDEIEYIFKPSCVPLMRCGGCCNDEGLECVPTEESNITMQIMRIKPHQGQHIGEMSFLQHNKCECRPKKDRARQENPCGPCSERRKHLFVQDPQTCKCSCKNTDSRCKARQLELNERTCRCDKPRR

[3] = molecular target: T1, EGFR expressed on A431 cells; assay: EGFR binding assay: inhibition of biotinylated EGF binding to A431 cells; lowest value obtained
Protocol: All reagents were prepared in PBS/1% BSA. The plate was incubated for 30 minutes at room temperature.

Binder | Kinase Assay IC50 (nM), average [1] [nM] | EC50 [2] [nM] | IC50 (VEGF-165) [nM] | IC50 [3] [nM] | Kinase Assay IC50 (nM), highest value [1] [nM] | Kinase Assay IC50 (nM), lowest value [1] [nM]
B1 | 56.1 |  |  |  |  | 
B2 |  | 43 | 0.8 |  |  | 
B3 | 42.4 |  |  | 1.08 to 6.89 |  | 
B4 | 20.5 |  |  | 1.47 to 4.21 |  | 
B5 | 54.9 |  |  | 4.47 to 10.4 |  | 
B6 |  | 17 | 0.2 |  |  | 
B7 | 8.69 |  |  | 0.746 to 1.47 |  | 
B8 | 12.7 |  |  | 1.01 to 2.76 | 17.6 | 9.14
